Measured values published in patent US20120178693A1.

Biological target: CMK-inhibited FVII (human Factor VII treated with a 'Phe-Pro-Arg' peptide based chloromethylketone inhibitor) (UniProt P08709)
Chain of UniProt P08709 (P08709 61-466): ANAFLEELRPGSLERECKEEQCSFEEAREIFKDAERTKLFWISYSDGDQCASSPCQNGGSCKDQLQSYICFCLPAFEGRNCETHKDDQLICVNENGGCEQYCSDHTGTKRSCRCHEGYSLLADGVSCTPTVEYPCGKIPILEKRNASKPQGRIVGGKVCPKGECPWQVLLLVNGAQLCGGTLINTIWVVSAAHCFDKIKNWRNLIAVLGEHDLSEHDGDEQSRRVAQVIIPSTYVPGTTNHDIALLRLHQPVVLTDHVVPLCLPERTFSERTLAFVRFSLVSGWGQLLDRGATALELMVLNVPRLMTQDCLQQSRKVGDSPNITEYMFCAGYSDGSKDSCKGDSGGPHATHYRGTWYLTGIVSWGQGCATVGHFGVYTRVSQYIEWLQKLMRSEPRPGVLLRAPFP

**Q.** For thrombin, which “activation of FVII by thrombin (rate of hydrolysis of the chromogenic substrate Chromozym-tPA)” value is on record?
**A.** a low activation of FVII by thrombin was measured
